assay: soluble on expression in E. coli; label from the status in PepcDB or PDB records

Soluble on expression in E. coli, not soluble:
MGSDKIHHHHHHMGKLLAINISKERGTEKREVPQAELVADYGIMGDAHAGKWHRQVSLLSAEKIDAFRARGAQIDNGAFGENLIISGFDFKNLPLGTRFCIGDAILEMTQIGKQCHSHCAIYKRMGECIMPKEGVFAVVIRGGQIHTGDEVKLIPANIYASIKDRPADSRCELLTVTEGAHAGEKALYIDGRIRVASGSAWADEINDNDNSIVMFKQQIGSRPRLIICGGGHVSAALVRMASLLAFDIWVIEDRPLFADNAKRQGADHVICGDYKKTLARLEPQADDYYVCMTRGHRFDMECLTEIFRKPYAYVGMMGSKKRAAIVKKDLEESGFSRENISGLHSPIGLAIGGQTPEEIALSVISEIVKCKNERTGCTQVDNEVLDALIEASDEKYILCTIIKKNGSAPRGVGTQMLVSSDNRIIGTIGGGCAEAEVISQCRRLFRKQEFKCGLMDVSMNTDDAEKEGMVCGGSISVLLEQLG
MIDALLQEKITTRLIDTAPTIPVGVSNRHVHLSQQDVEALFGVGYQLTPFKPLRQPGQFAAEECVTVVGPKGSLTHVRVLGPVRPTSQLEISRADCFTLGIKAPVRESGQLENAGDALLVGPKGHVELHSQVICAWRHIHMSPQDARLLNVSNGQKVSVRSHGERQLTFDEVVVRVRNDFALELHIDTEEANAAGLKNGAQVTLIR
MEKNGLFSQRIRLRHLHTFVAVAQQGTLGRAAETLNLSQPALSKTLNELEQLTGTRLFERGRLGAQLTVPGEQFLTHAVKVLDALNTAGQALNRKEDASADVVRVGALPTAALGILPAAIGRFHQQQKSTSLQVATMNNTMLLAGLKSGEIDLGIGRMSDPELMGGLNYELLFLESLKLVVRPGHPLLQETITLSRVMEWPVVVSPKGTVPRQNAEALLQSQGCKMPAGCIETLSASLSRQLTVDYDYVWFVPSGAVKEDLRQATLVSLPVPTQSAGEPIGILTRVDIPLSTGAQMLIAAIRKSMPL
IGKVNYNIGFNLSDNRAKVISYPNASKALWDSNGNTLYYNGMTIGEIWGYETEGIAKTDAQMTEWLASNDQSKIGSVWGAGDIMYRDLNGDGIVDKGNSTATDHGDLKKIGNSTPRLRFGLSLGADWKGFDIQMFFQGVMKRDLWLSGPMFWGADGGEWQSVGFDEHLDYFRPENTTSIFGANLNSYYPKAYLGDKGNKNKQTQTRYLQNGAYMRMKNLQIGYTFPKAWMNKAKIEKLRIYVSGENLFTISGIADMFDPEATAGNGFSNGKTYPLSKTISFGLNITL
MIVFKAENLSVGYNGVKAVSNINFSAKQGEIICLLGPNGAGKTTIIRTLSGLLPPIEGEIHINGKSLSTINKKLLAQTLSVVLTEKPSFDVMTAFDVVSLGRFPHTGFFGTITKEHEIKVVEALKTVGALNLIDKYFHILSDGERQKVMLARALVQEPQIIILDEPTTHLDINHKIELLNTLKNLSRTAKLTVILSLHEIDLALKYCDKVMLVENKKVLSFGSPETTVNGETINKLYGIKNASFNPITSSIELKNSEKSNIYVIGGCGFGTPIYRLLSKYNLGFSTGILHENDIDYETAKTMSLRLQSEKPFQKISKISFEKALAAVASSDIIIDSGFPIGETNEKNLNLLNYAVEKNKRVITFRKYFNSTMSYCSNKDALIDFILRLEHHHHHH
MSVARHTQILPSVLDRLLDDEPDQSHIESISLFELPQFKRALARDLEALLNTRLMPLDELMESFPQARDSLLTFGIPDLSGISLLNPDDRELLREQLRRSIELHEPRLSRVRVNLDAPREMERHLRFRVDAVLKVHPHRPPVTFDATLQLSSNVYKVQG
MQFEERLQQLVESDWSLDQSSPNVLVIVLGDTARKYVELGGLKEHVTTNTVAGHVASRERVSVVFLGRVKYLYMYLTRMQAQANGPQYSNVLVYGLWDLTATQDGPQQLRYLALCYGSASVCHLKLNSIQNRLLVACLPGYCDSGTILSDSCIVLHAIS
MATSSSAFDDELPMEEGMPELLDDEDVPSTLPSLLEQNLDTAPKGDEFKLVKRKRKSGNAIDVVMEDVSQVDEDATADTADDSTGPKSSKRTKGVKGESRVVPVPKHRYTPLKDNWVNIFTPIVKNLGLQVRFNLKKRQVEIRNPVDREDTTDLQKATDFVRAFILGFEVNDAIALIRLDHLFLETFEVADVKHSLKGDHVSRAIGRIAGKDGRTKLVIENTTKTRIVVANTKIHILGAYQNLKLARNAVCSLILGSNPSKVYGSLRNMASRGAERL
MVAEITAPKSMGKVLGYNFSKVTAGNASVILTSSMSVDANGETNFERALTDMDMRIPSGIRTKKTVFHCSLNPHPDDRLTTEQLQDIAREYMEKMGYGKQPYIVFKHNDIAREHIHIVSLRVDSYGKKLPYKFEARRSKRITDELERKYGLIPSGNRRSRHETHAENVLKTADVKQGDVRRQIAAVVRAVLKRYAFRSLGEMNLLLARYHIVAEEVRKEYKGKRYDGLVYAITDDAGEKRMIPLHAGKIGRGTGYAAVVRHFEKSKALIKEKAPMLRNAIIEVMQSSPDKERFSEEMKKRGIDVHIRQNEQGRIYGITFISDEAGIAANGSRLGKGYSAHVFNDYFLGGENPFLDYRRQEIRELPTVRSAPEMLPEAETGDDCYDEPVRTDESGIVVHGIDYKELAFQRKLRNRRHKQDITGKRRT
MALLTSKLRYLLLFYAVFQAAQFGLRWKSYDISPKQFKTIAGKAAAAPTISQSISTLTSGMRTYYEPIMPSHFEWHAIQLGGLTLRMYPMLTAFTEFAAAFSAPFPTSGRPGLHWANTTCTVLKGKVSRFNDGTQDETSENFASGAAFRHGQFESHVYSFEKDTYVACYGRGFLPLSSTVHVTSGISLGEPLSVIQFYMKQAYNYWNNLSHTLYRVFQHYKARATGEL
MAHHHHHHMSETSACPLNDFFDIDEENNLDEIKKEEKDVFSGNFLSYIYNQFEFCCINFFDELKKKDKRKNITLKKNYSDGYSKNDNGQCYYNVFDKILKKDVDTIKEVSLHSIYFNPHADWCECAHEFNLELNHEEAEFCIFNFFLKMYRYEERNKDLLLSILLECLYSKKDMKKAFHIQKENLKFLKEIKNIETSNFKESLNELINIIENTNFIQFNANEKKDMQKYYFKLYIIIKIKYPYGIYIFNCDDVYDIVVIDCNTFMQNKPKIMSFLSLRKFISFLNNIYSININEENIYDSFPIIVYESKECYHLSHSHLPLNLTACTPKEKKKNSVKNHLNQSGNENENENKD
MPTKVLVNATYLHSYFREWVKGNIWIHGDRIVYAGERLPDRIDESCEIIDCRGYVLVPGYIEPHVHPFQLYNPHSFARYAAMYGTTTLLNDNLFFLLQLEHHHHHH
EPEGKPRAWVLDFKGSMDAHEVNSLREEITAVLAAAKARDQVVIRLESPGGVVHGYGLAASQLQRLRDKQIPLTVSVDKVAASGGYMMACVANKIVSAPFAILGSIGVVAQIPNLHRFLKNKDIDIELHTAGQYKRTLTMLGENTEEGRRKFREDLNETHHLFKDFVHRMRPGLDIEQVATGEHWYGVQALEKGLVD
MPKIQNIVTVSSQEYRDAMSHFAGAVHIVTTNGIKGKRGVTISACCSLSDDPPTLLVCLMRHNLKNHLFIENGNFCVNSLAGKHRSLADIFSRRYNYTETECFDRAQWGTLQTGAPSLSDALASFDCRLICWHEHATHYILIGEVIAINRNQEKDALIYLNRGYHTLPL
MGSDKIHHHHHHMPLPIRDLYTFFVVARAGAMQAAAHELGVTPGAISQRIRSIEDRYGKRLFVRSRDGVSLTASGKALWKEVKSAFAQIETSHNRHIGKDGKTILRISAAPTFAHSFLVSNLASFNEDHPGIRFNIETEDRLADLRSEPIDLAIRHGLGDYAGLRSEWLCAPELIVVGSPALLESQHPVKEPEDCLRFTLLPDETGLDWALWFEAHRVNAVAPSYGTAFKDGFLTVKAASRGQGLALINDIYVREELADGRLVQLLPGSWPTKFAYYAVALPETFDRPAVKAFVKWLCAACAVEQMHQK
MGSDKIHHHHHHMKICVLYSGGKDSTYALHWAVFKGFEVVCLITLIPKREDSWMFQYPNVIYTKYQAEAMDFKLITFGTSGEKDKELEDLKKALLQAKNEGADGIVSGALLSDYQRLNISIIAEELGLKTYTPLWRKSQEEYMRWLVKEGFKFIITSASAYGFPFDLVGKEITTEDVEKIIERARRYGFNPAFEGGEAETFVTYAPLFKTQLRVNGKLKRISEYECRYEITDIH

Soluble on expression in E. coli, soluble:
MADYKDIVLIQSTSSLSASLGDRVTISCRASQDIRNYLNWYQQKPDGTVKLLIYYTSRLLPGVPSRFSGSGSGTDYSLTISNLEQEDIGTYFCQQGNTLPWTFGGGTKLEIRRGGGGSGGGGSGGGGSGGGGSEVQLQQSGPELVKPGASVKISCKDSGYAFSSSWMNWVKQRPGQGPEWIGRIYPGDGDTNYNGKFKGKATLTADKSSSTAYMQLSSLTSVDSAVYFCARSGLLRYAMDYWGQGTSVTVSS
GAMAATAAEAVASGSGEPREEAGALGPAWDESQLRSYSFPTRPIPRLSQSDPRAEELIENEEPVVLTDTNLVYPALKWDLEYLQENIGNGDFSVYSASTHKFLYYDEKKMANFQNFKPRSNREEMKFHEFVEKLQDIQQRGGEERLYLQQTLNDTVGRKIVMDFLGFNWNWINKQQGKRGWGQLTSNLLLIGMEGNVTPAHYDEQQNFFAQIKGYKRCILFPPDQFECLYPYPVHHPCDRQSQVDFDNPDYERFPNFQNVVGYETVVGPGDVLYIPMYWWHHIESLLNGGITITVNFWYKGAPTPKRIEYPLKAHQKVAIMRNIEKMLGEALGNPQEVGPLLNTMIKGRYN
AHHHHHHGSARITEEQRRKLAQDALEYHRNNFPGNGKIEVIPKVPLRDFYDLSLAYTPGVAEPCKVIAKKGNYEDYTIIPNTVAVVTDGSAILGLGNIGVLAGMPVMEGKCVLFKALAGIDAFPILIDTQDVEKIVETIKLISKGFGGINLEDISAPRCFEIEMRLKRELDIPVFHDDQHGTAVVTLAGLINALKLVGKKFNEIKVAISGAGAAGIAIAKLLHHVGVKEILLVDRAGIIYEGRKENMNPYKEEVARFNIHGVQGDLAKAMEGADVFIGVSVGGIVKPWMIKKMADDPIVFAMANPIPEIMPEDAKKAGAKIVATGRSDYPNQINNVLGFPGIFRGALDVRATDITLNMNIAAAEAIASVVSDEELSEDYIIPSPLHPDVYPKEARAVAEQAIRDGVARRKLSGEWVEEHTRKLREFYAALIEPLNERRKQYIT
MTTEFNEIMKEINDSETIIIHRHVRPDPDAYGSQLGLKNYLKLKFPDKKIFAVGETEPSLDFIGTFDEISDDTYNEALVIVCDTANSPRISDERFNQGRLLVKIDHHPAVDQYGDINFVNDQASSTSEIIFDFISHFNDIPIIDASVARVLYLGIVGDTGRFLFNNTTSHTMGVAGQLLTFPFNHNEELNKMGEKDPKLLPFQGYVLQHFDLNEKGFCKVTITKEILEQFDIAANQASLFVNAIADIQGLKIWVFAVDEGTEIRCRIRSKGIVINDIASDFGGGGHPNASGVSVRDWAQFETLAEALNNKLLEHHHHHH
MTYRVKIHKQVVKALQSLPKAHYRRFLEFRDILEYEPVPREKFDVIKLEGTGDLDLYRARLGDYRVIYSVNWKDKVIKILKLKPRGRAYK
MKTLTEIKQTPKGIIKADESFNQVKDKIRLPRRILYLGCGSSHFLAKLLAMVTNMHGGTGVALPCSEFLYSKEAYPIGKPELVVGISRSGETTEVLLALEKINTPKLGISAYESSLTRACDYSLVVPTIEESVVMTHSFTAFYFAYLQLLRHSYGLPLLEATEVAKATEKALEYENYIKEIVEDFDFQNVIFLGSGLLYPVALEASLKMKEMAIFWSEAYPTFEVRHGFKAIADENTLVVLMAQELFEWHKKLVNEFKGQRARVLLISNSQQEFGQDYSIEVPRLSKDATPIPYLPVVQLLSYYKAVARGLNPDNPRFLDKVVRWLEHHHHHH

Reference: the DeepSol protein solubility set
